# Residue numbers refer to the chain shown, from its start.
# B1: UDP-N-acetylmuramoyl-L-alanyl-D-glutamate:meso-2,6-diaminopimelate ligase (protein, listed as Pseudomonas aeruginosa)
# chain: MPMSLSQLFPQAERDLLIRELTLDSHGVRPVDLFLTVPGGHQDGRAHIADALTKGATAVAYEAEGAGELPPSDAPLIAVKGLAAQLSAVAGRFYGEPSRGLDLIGVTGTNGKTSVSQLVAQALDLLGERCGIVGTLGTGFYGALESGRHTTPDPLAVQATLATLKQAGARAVAMEVSSHGLDQGRVAALGFDIAVFTNLSRDHLDYHGSMEAYAAAKAKLFAWPDLRCRVINLDDDFGRRLAGEEQDSELITYSLTDSSAFLYCREARFGDAGIEAALVTPHGEGLLRSPLLGRFNLSNLLAAVGALLGLGYPLGDILRTLPQLQGPVGRMQRLGGGGKPLVVVDYAHTPDALEKVLEALRPHAAARLLCLFGCGGDRDAGKRPLMAAIAERLADEVLVTDDNPRTEASAAIIADIRKGFAAADKVTFLPSRGEAIAHLIASAAVDDVVLLAGKGHEDYQEIDGVRHPFSDIEQAERALAAWEVPHA
# modifications: His tag
# What was measured:
# P. aeruginosa MurE = molecular target: T1, P. aeruginosa MurE (Pseudomonas aeruginosa, UniProt Q59650); assay: ATP-dependent MurE activity, pyruvate kinase/lactate dehydrogenase coupled enzyme assay (ADP formation); format: biochemical; settings: recombinant MurE from P. aeruginosa; 25° C., pH 8.0; ADP formed per min per mg
# T1 construct: 6xHis (pET-15b) (N); made in house; host or cells: E. coli BL21(DE3)/pLysS, plasmid pPaeMurE (pET-15b)
# T1 sequence (Q59650 whole entry, looked up): B1 chain with S6N, H26R, V31G, T36A, H41R, T53A, T57A, D225G, G338D
# Procedure: (§1) The ATP-dependent MurE activity was assayed by monitoring the formation of product ADP using the pyruvate kinase and lactate dehydrogenase coupled enzyme assay. The reaction was monitored spectrophotometrically.
# (§2) Typically, the assay contained 100 mM BIS-TRIS-propane, pH 8.0, 200 μM NADH, 1 mM ATP, 20 mM PEP, 5 mM MgCl2, 1 mM DTT, 350 μM UDP-N-acetyl-muramyl-L-alanine-D-Glutamine, 1 mM m-Dap, 33 units/ml of pyruvate kinase and 1660 units/ml of lactate dehydrogenase in a final volume of 200 or 400 μl. The mixture was incubated at 25° C. for 5 min and the reaction initiated by the addition of 1-10 μg of MurE. These conditions are one example of an assay useful for evaluating the activity of MurE. Other assays can be used, or amounts of buffers, substrate and enzyme can be changed, as desired, to alter the rate of production of ADP.
# (§3) ADP formation was monitored by the decrease in absorbance at 340 nm as a function of time using a MOLECULAR DEVICES SPECTRAMAXPLUS™ microtiterplate spectrophotomer (for 200 μl assays) or a HEWLETT-PACKARD HP8452A spectrophotometer equipped with a circulating water bath (for 400 μl assays). Rates were calculated from the linear portions of the progress curves using the extinction coefficient for NADH, e=6220 cm^−1 M-1. One unit of MurE activity is equal to 1 μmol of ADP formed per min at 25° C.
# E. coli MurE = molecular target: T2, E. coli MurE (Escherichia coli, UniProt P22188); assay: as above; format: biochemical; settings: recombinant MurE from E. coli; 25° C., pH 8.0; ADP formed per min per mg
# T2 sequence (P22188 whole entry, looked up): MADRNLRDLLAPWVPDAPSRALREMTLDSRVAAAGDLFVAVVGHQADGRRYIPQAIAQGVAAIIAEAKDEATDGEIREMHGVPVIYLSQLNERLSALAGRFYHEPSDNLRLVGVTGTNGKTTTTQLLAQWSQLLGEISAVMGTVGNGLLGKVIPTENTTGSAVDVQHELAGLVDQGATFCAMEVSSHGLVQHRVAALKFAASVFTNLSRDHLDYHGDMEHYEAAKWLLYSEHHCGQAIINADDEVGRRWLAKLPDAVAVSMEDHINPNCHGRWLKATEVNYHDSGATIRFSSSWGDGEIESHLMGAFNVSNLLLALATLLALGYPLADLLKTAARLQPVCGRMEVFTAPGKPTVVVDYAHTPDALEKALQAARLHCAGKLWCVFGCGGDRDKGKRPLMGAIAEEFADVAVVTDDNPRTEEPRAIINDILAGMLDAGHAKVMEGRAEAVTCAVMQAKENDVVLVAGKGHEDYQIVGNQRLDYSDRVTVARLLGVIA
# Procedure: as §1, §2, §3
molecule,measurement,setting,value
B1,"Specific activities of recombinant MurE, P. aeruginosa",P. aeruginosa MurE,3.31 µmol/min/mg
same,"Specific activities of recombinant MurE, E. coli",E. coli MurE,0.68 µmol/min/mg

# From US6870041B1, “MurE protein and gene of pseudomonas aeruginosa” (priority 1999, dated 2005)
